B1: EHEE_rd2_0191 (parent)
chain: TTEYTFTDDEEARRAIEELKKRGLTFRYEKHGTTWRVRVD
B2: EHEE_rd4_0726 (parent)
chain: DIEITTNGEEDAKRVIKELQKRNLEYHIEVHGNQWVIKVR

Variants of: B1
Experiment: folding stability dG (cDNA display proteolysis); higher = more stable
Details: PBS, room temperature

Variant | folding stability dG [kcal/mol]
TTEYTFTDDEEARRAIEELKKRGLTFRYEKHGTTWRVRED | -0.709
TTEYTFTDDEEARRAIEELKKRGLTFRYEKHGTTWRVRMD | 1.02
TTEYTFTDDEEARRAIEELKKRGLTFRYEKHGTTWRVRQD | -0.645
TTEYTFTDDEEARRAIEELKKRGLTFRYEKHGTTWRVRID | 2.02
TTEYTFTDDEEARRAIEELKKRGLTFRYEKHGTTWRVRHD | -0.386
TTEYTFTDDEEARRAIEELKKRGLTFRYEKHGTTWRVRWD | 0.937
TTEYTFTDDEEARRAIEELKKRGLTFRYEKHGTTWRVRLD | 1.6
TTEYTFTDDEEARRAIEELKKRGLTFRYEKHGTTWRVRFD | 1.24
TTEYTFTDDEEARRAIEELKKRGLTFRYEKHGTTWRVRPD | -0.946
TTEYTFTDDEEARRAIEELKKRGLTFRYEKHGTTWRVRTD | 0.562
TTEYTFTDDEEARRAIEELKKRGLTFRYEKHGTTWRVRAD | 0.227
TTEYTFTDDEEARRAIEELKKRGLTFRYEKHGTTWRVRYD | 0.601
TTEYTFTDDEEARRAIEELKKRGLTFRYEKHGTTWRVRSD | -0.316
TTEYTFTDDEEARRAIEELKKRGLTFRYEKHGTTWRIRVD | 2.67
TTEYTFTDDEEARRAIEELKKRGLTFRYEKHGTTWRFRVD | 1.88
TTEYTFTDDEEARRAIEELKKRGLTFRYEKHGTTWRMRVD | 0.361
TTEYTFTDDEEARRAIEELKKRGLTFRYEKHGTTWRPRVD | -0.51
TTEYTFTDDEEARRAIEELKKRGLTFRYEKHGTTWRCRVD | 0.419
TTEYTFTDDEEARRAIEELKKRGLTFRYEKHGTTWRLRVD | 1.76
TTEYTFTDDEEARRAIEELKKRGLTFRYEKHGTTWRVRVY | 3.29
TTEYTFTDDEEARRAIEELKKRGLTFRYEKHGTTWRVRVE | 2.31
TTEYTFTDDEEARRAIEELKKRGLTFRYEKHGTTWRVRVA | 2.04
TTEYTFTDDEEARRAIEELKKRGLTFRYEKHGTTWRVRVL | 2.78

Variant | folding stability dG [kcal/mol]
TTEYTFTDDEEARRAIEELKKRGLTFRYEKHGTTWRVRVI | 2.83
TTEYTFTDDEEARRAIEELKKRGLTFRYEKHGTTWRVRVR | 1.95
TTEYTFTDDEEARRAIEELKKRGLTFRYEKHGTTWRVRVP | 1.86
TTEYTFTDDEEARRAIEELKKRGLTFRYEKHGTTWRVRVT | 2.38
TTEYTFTDDEEARRAIEELKKRGLTFRYEKHGTTWRVRVV | 2.54
TTEYTFTDDEEARRAIEELKKRGLTFRYEKHGTTWRVRVG | 2.1
TTEYTFTDDEEARRAIEELKKRGLTFRYEKHGTTWRVRVS | 2.17
TTEYTFTDDEEARRAIEELKKRGLTFRYEKHGTTWRVRVN | 2.04
TTEYTFTDDEEARRAIEELKKRGLTFRYEKHGTTWRVRVM | 2.68
TTEYTFTDDEEARRAIEELKKRGLTFRYEKHGTTWRVRVK | 1.9
TTEYTFTDDEEARRAIEELKKRGLTFRYEKHGTTWRVRVC | 3.04
TTEYTFTDDEEARRAIEELKKRGLTFRYEKHGTTWRVRVH | 2.19
TTEYTFTDDEEARRAIEELKKRGLTFRYEKHGTTWRVRVF | 3.35
TTEYTFTDDEEARRAIEELKKRGLTFRYEKHGTTWRVRVQ | 2.19
TTEYTFTDDEEARRAIEELKKRGLTFRYEKHGTTWRVRVW | 3.19
TTEYTFTDDEEARRAIEELKKRGLTFRYEKHGTTWRVNVD | 1.71
TTEYTFTDDEEARRAIEELKKRGLTFRYEKHGTTWRVYVD | 3.62
TTEYTFTDDEEARRAIEELKKRGLTFRYEKHGTTWRVGVD | 0.594
TTEYTFTDDEEARRAIEELKKRGLTFRYEKHGTTWRVWVD | 4.04
TTEYTFTDDEEARRAIEELKKRGLTFRYEKHGTTWRVFVD | 3.61
TTEYTFTDDEEARRAIEELKKRGLTFRYEKHGTTWRVLVD | 2.95
TTEYTFTDDEEARRAIEELKKRGLTFRYEKHGTTWRVEVD | 2.35
TTEYTFTDDEEARRAIEELKKRGLTFRYEKHGTTWRVMVD | 2.81

Variant | folding stability dG [kcal/mol]
TTEYTFTDDEEARRAIEELKKRGLTFRYEKHGTTWRVIVD | 3.6
TTEYTFTDDEEARRAIEELKKRGLTFRYEKHGTTWRVAVD | 1.89
TTEYTFTDDEEARRAIEELKKRGLTFRYEKHGTTWRVTVD | 2.95
TTEYTFTDDEEARRAIEELKKRGLTFRYEKHGTTWRVSVD | 2.49
TTEYTFTDDEEARRAIEELKKRGLTFRYEKHGTTWRVVVD | 3.23
TTEYTFTDDEEARRAIEELKKRGLTFRYEKHGTTWRVQVD | 2.47
TTEYTFTDDEEARRAIEELKKRGLTFRYEKHGTTWRVDVD | 1.11
TTEYTFTDDEEARRAIEELKKRGLTFRYEKHGTTWRVKVD | 2.06
TTEYTFTDDEEARRAIEELKKRGLTFRYEKHGTTWRVHVD | 2.28
TTEYTFTDDEEARRAIEELKKRGLTFRYEKHGTTSRVRVD | 0.309
TTEYTFTDDEEARRAIEELKKRGLTFRYEKHGTTRRVRVD | -0.576
TTEYTFTDDEEARRAIEELKKRGLTFRYEKHGTTARVRVD | -0.575
TTEYTFTDDEEARRAIEELKKRGLTFRYEKHGTTMRVRVD | 0.84
TTEYTFTDDEEARRAIEELKKRGLTFRYEKHGTTVRVRVD | 1.44
TTEYTFTDDEEARRAIEELKKRGLTFRYEKHGTTYRVRVD | 1.21
TTEYTFTDDEEARRAIEELKKRGLTFRYEKHGTTCRVRVD | 1.77
TTEYTFTDDEEARRAIEELKKRGLTFRYEKHGTTFRVRVD | 0.889
TTEYTFTDDEEARRAIEELKKRGLTFRYEKHGTTNRVRVD | -0.839
TTEYTFTDDEEARRAIEELKKRGLTFRYEKHGTTLRVRVD | 0.943
TTEYTFTDDEEARRAIEELKKRGLTFRYEKHGTTTRVRVD | 1.49
TTEYTFTDDEEARRAIEELKKRGLTFRYEKHGTTIRVRVD | 2.15
TTEYTFTDDEEARRAIEELKKRGLTFRYEKHGTTHRVRVD | 1.59
TTEYTFTDDEEARRAIEELKKRGLTFRYEKHGTYWRVRVD | 2.05

Variant | folding stability dG [kcal/mol]
TTEYTFTDDEEARRAIEELKKRGLTFRYEKHGTWWRVRVD | 1.75
TTEYTFTDDEEARRAIEELKKRGLTFRYEKHGTVWRVRVD | 2.42
TTEYTFTDDEEARRAIEELKKRGLTFRYEKHGTTWNVRVD | 1.43
TTEYTFTDDEEARRAIEELKKRGLTFRYEKHGTTWQVRVD | 1.54
TTEYTFTDDEEARRAIEELKKRGLTFRYEKHGTTWIVRVD | 3.33
TTEYTFTDDEEARRAIEELKKRGLTFRYEKHGTTWCVRVD | 2.39
TTEYTFTDDEEARRAIEELKKRGLTFRYEKHGTTWMVRVD | 2.08
TTEYTFTDDEEARRAIEELKKRGLTFRYEKHGTTWTVRVD | 2.57
TTEYTFTDDEEARRAIEELKKRGLTFRYEKHGTTWEVRVD | 1.34
TTEYTFTDDEEARRAIEELKKRGLTFRYEKHGTTWWVRVD | 2.7
TTEYTFTDDEEARRAIEELKKRGLTFRYEKHGTTWYVRVD | 3.28
TTEYTFTDDEEARRAIEELKKRGLTFRYEKHGTTWGVRVD | -0.707
TTEYTFTDDEEARRAIEELKKRGLTFRYEKHGTTWHVRVD | 2.44
TTEYTFTDDEEARRAIEELKKRGLTFRYEKHGTTWLVRVD | 2.71
TTEYTFTDDEEARRAIEELKKRGLTFRYEKHGTTWDVRVD | 0.362
TTEYTFTDDEEARRAIEELKKRGLTFRYEKHGTTWSVRVD | 1.67
TTEYTFTDDEEARRAIEELKKRGLTFRYEKHGTTWAVRVD | 1.19
TTEYTFTDDEEARRAIEELKKRGLTFRYEKHGTTWKVRVD | 2.35
TTEYTFTDDEEARRAIEELKKRGLTFRYEKHGTTWVVRVD | 3.08
TTEYTFTDDEEARRAIEELKKRGLTFRYEKHGTTWFVRVD | 3.02

Variants of: B2
Experiment: as above
Details: PBS, room temperature

Variant | folding stability dG [kcal/mol]
FIEITTNGEEDAKRVIKELQKRNLEYHIEVHGNQWVIKVR | 3.31
CIEITTNGEEDAKRVIKELQKRNLEYHIEVHGNQWVIKVR | 2.75
PIEITTNGEEDAKRVIKELQKRNLEYHIEVHGNQWVIKVR | 2.29
QIEITTNGEEDAKRVIKELQKRNLEYHIEVHGNQWVIKVR | 2.36
NIEITTNGEEDAKRVIKELQKRNLEYHIEVHGNQWVIKVR | 2.37
AIEITTNGEEDAKRVIKELQKRNLEYHIEVHGNQWVIKVR | 2.34
VIEITTNGEEDAKRVIKELQKRNLEYHIEVHGNQWVIKVR | 2.77
SIEITTNGEEDAKRVIKELQKRNLEYHIEVHGNQWVIKVR | 2.39
YIEITTNGEEDAKRVIKELQKRNLEYHIEVHGNQWVIKVR | 3.38
HIEITTNGEEDAKRVIKELQKRNLEYHIEVHGNQWVIKVR | 2.48
IIEITTNGEEDAKRVIKELQKRNLEYHIEVHGNQWVIKVR | 2.87
RIEITTNGEEDAKRVIKELQKRNLEYHIEVHGNQWVIKVR | 2.24
TIEITTNGEEDAKRVIKELQKRNLEYHIEVHGNQWVIKVR | 2.63
MIEITTNGEEDAKRVIKELQKRNLEYHIEVHGNQWVIKVR | 2.87
GIEITTNGEEDAKRVIKELQKRNLEYHIEVHGNQWVIKVR | 2.43
WIEITTNGEEDAKRVIKELQKRNLEYHIEVHGNQWVIKVR | 4.08
KIEITTNGEEDAKRVIKELQKRNLEYHIEVHGNQWVIKVR | 1.97
EIEITTNGEEDAKRVIKELQKRNLEYHIEVHGNQWVIKVR | 2.59

Variant | folding stability dG [kcal/mol]
LIEITTNGEEDAKRVIKELQKRNLEYHIEVHGNQWVIKVR | 2.76
DQEITTNGEEDAKRVIKELQKRNLEYHIEVHGNQWVIKVR | 1.69
DREITTNGEEDAKRVIKELQKRNLEYHIEVHGNQWVIKVR | 1.97
DFEITTNGEEDAKRVIKELQKRNLEYHIEVHGNQWVIKVR | 3.22
DVEITTNGEEDAKRVIKELQKRNLEYHIEVHGNQWVIKVR | 2.15
DNEITTNGEEDAKRVIKELQKRNLEYHIEVHGNQWVIKVR | 1.49
DGEITTNGEEDAKRVIKELQKRNLEYHIEVHGNQWVIKVR | 1.4
DEEITTNGEEDAKRVIKELQKRNLEYHIEVHGNQWVIKVR | 1.54
DTEITTNGEEDAKRVIKELQKRNLEYHIEVHGNQWVIKVR | 1.91
DKEITTNGEEDAKRVIKELQKRNLEYHIEVHGNQWVIKVR | 1.58
DLEITTNGEEDAKRVIKELQKRNLEYHIEVHGNQWVIKVR | 2.52
DSEITTNGEEDAKRVIKELQKRNLEYHIEVHGNQWVIKVR | 1.65
DPEITTNGEEDAKRVIKELQKRNLEYHIEVHGNQWVIKVR | 1.06
DDEITTNGEEDAKRVIKELQKRNLEYHIEVHGNQWVIKVR | 1.41
DAEITTNGEEDAKRVIKELQKRNLEYHIEVHGNQWVIKVR | 1.53
DCEITTNGEEDAKRVIKELQKRNLEYHIEVHGNQWVIKVR | 2.82
DMEITTNGEEDAKRVIKELQKRNLEYHIEVHGNQWVIKVR | 2.43
DHEITTNGEEDAKRVIKELQKRNLEYHIEVHGNQWVIKVR | 2.06

Source: the MegaScale stability set (Tsuboyama et al. 2023)
